Results on 1 molecule are retold here after patent US20070172423A1, “Composition and method for modulating vasculogenesis for angiogenesis” (priority 1998, published 2007).

Where only a bound is given, the exact number is not on record here.

Assay [1] has as its system human bone marrow-derived AC133+CD34+ cells. The experiment in a line: Human bone marrow cell adherence and differentiation assay. Format: cell-based. The following applies: 50 ng/ml. The procedure:
Enriched human BM derived AC133+CD34+ cells (Clonetics) at 10^5/ml were cultured for 3 days in HPGM (Clonetics) in a 6-well plate (Becton Dickinson). Cells were then seeded in collagen coated 12-well plates in EBM (Clonetics) medium containing 4% FCS and VEGF165 (R&D Systems) or PDGF-CC (50 ng/ml each). Growth factors were added every two days and media were refreshed at 75% every four days. For adherence assay, 2.5×10^4 of non-adherent cells/ml were cultured in the same condition on chamber slides coated with collagen, or in 96-well plate coated with 0.3% gelatin in PBS. Cells were then washed three times with PBS, fixed and stained with May-Grünwald Giemsa (Sigma) after two weeks of culture on chamber slides (Becton Dickinson). The number of viable cells was estimated by ATP quantification using cellTiter-glo luminescent cell viability assay (Promega) according to the manufacturer's instructions. For cell surface marker staining, cells (2×10^4/well) cultured on collagen-coated culture slides for two or four weeks were fixed (45 min, 25° C.) and permeabilized (45 min, 25° C.) using a Intrastain Kit (DAKO), and then labeled with CD31-FITC (Becton Dickinson), CD144-FITC (Pharmingen), CD34-FITC (Becton Dickinson) or SMC-Actin CY3 (Sigma). Single or double-labeled cells were analyzed using laser confocal immunofluorescence microscopy.
Upon stimulation by growth factors or cytokines, bone marrow stem/progenitor cells can differentiate into ECs and SMCs and thereby contribute to angio/arteriogenesis (Orlic et al., Nature, 2001 410:701-5; Kawamoto et al., Circulation, 2001 103:634-7; Asahara et al., Circ Res, 1999 85:221-8). The potential role of PDGF-CC in the differentiation of bone marrow progenitors into vascular cells has, however, not been investigated thus far. We therefore cultured human bone marrow-derived AC133^+CD34^+ cells—a population enriched for stem/progenitor cells (Miraglia et al., Blood, 1997 90:5013-21; Yu et al., J Biol Chem, 2002 277:20711-6; Donnelly et al., Leuk Lymphoma, 2001 40:221-34)—and stimulated them with PDGF-CC, using VEGF as a control (50 ng/ml each).

In a further assay the test system is HMVEC. Kind of assay: HMVEC proliferation assay. Format: cell-based, human. The following applies: 50 ng/ml, 7 days. The procedure:
(§1) Cell migration assays were performed on growth arrested confluent HMVEC, BAEC or hSMC cells. Cell monolayers were wounded with a rubber policeman and washed with serum-free medium. Dishes were then incubated for 20 hours in serum-free medium containing VEGF165, PDGF-AA, (R&D Systems, Minneapolis USA) or PDGF-CC. Each assay included two dishes per condition and was repeated three times independently. Cells were photographed at 40× magnification, and migration percentage corresponding to the ratio between area of the cells and the total area of the wound (Biocom visiol@b 2000 version 4.52, San Diego). For HMVEC proliferation assay, cells were seeded in 96-well plates (5 wells per condition), and incubated with VEGF, PDGF-AA, or PDGF-CC (50 ng/ml) after serum starvation. After 7 days, viable cells were counted using the cell Titer-glo luminescent cell viability assay. For NIH-3T3 and hSMC proliferation assay, cells cultured in 96-well plates were serum-starved overnight, followed by treatment with growth factors at different concentrations. Two days later, cell numbers were counted and proliferation percentage calculated, using cells cultured in medium containing 10% serum as control. Aortic ring assay was performed as described 51. […] Aortic rings were analysed at day 9 of culturing. […]

Another assay concerns hSMC. Kind of assay: hSMC proliferation assay. Format: cell-based, human. As to conditions: two days, different concentrations. How it is done: as §1
In the next assay the target is PDGF alpha receptors (Homo sapiens, UniProt P16234). Kind of assay: Binding of radiolabeled truncated PDGF-C to PAE-1 cells expressing PDGF alpha receptors. Set-up: expressed in transfected cells; host or cells: porcine aortic endothelial (PAE-1) cells. The following applies: 125I-labeled protein, on ice 90 minutes. The procedure:
To assess the interactions between truncated PDGF-C and the PDGF alpha and beta receptors, truncated PDGF-C was tested for its capacity to bind to porcine aortic endothelial-1 (PAE-1) cells expressing PDGF alpha or beta receptors, respectively (Eriksson et al., EMBO J, 1992 11:543-550). The binding experiments were performed essentially as described in Heldin et al. (EMBO J, 1988 7:1387 1393). Five micrograms of truncated PDGF-C protein in ten microliters of sodium borate buffer was radiolabeled using the Bolton-Hunter reagent (Amersham) to a specific activity of 4×10^5 cpm/ng. Different concentrations of radiolabeled truncated PDGF-C, with or without added unlabeled protein, in binding buffer (PBS containing 1 mg/ml of bovine serum albumin) was added to the receptor expressing PAE-1 cells plated in 24-well culture dishes on ice for 90 minutes. After three washes with binding buffer, cell-bound ^125I-labeled PDGF-C was extracted by lysis of cells in 20 mM Tris-HCl, pH 7.5, 10% glycerol, 1% Triton X-100. The amount of cell-bound radioactivity was determined in a gamma-counter. Non-specific binding was estimated by including a 100-fold molar excess of truncated PDGF-C in some experiments. […] The binding was specific as radiolabeled PDGF-C was quantitatively displaced by a 100-fold molar excess of unlabeled protein.

The target of another assay is T1, PDGFR-α (Mus musculus, UniProt P26618).
T1 construct: from tissue; host or cells: mouse heart, infarct border region
T1 sequence (P26618 25-1089): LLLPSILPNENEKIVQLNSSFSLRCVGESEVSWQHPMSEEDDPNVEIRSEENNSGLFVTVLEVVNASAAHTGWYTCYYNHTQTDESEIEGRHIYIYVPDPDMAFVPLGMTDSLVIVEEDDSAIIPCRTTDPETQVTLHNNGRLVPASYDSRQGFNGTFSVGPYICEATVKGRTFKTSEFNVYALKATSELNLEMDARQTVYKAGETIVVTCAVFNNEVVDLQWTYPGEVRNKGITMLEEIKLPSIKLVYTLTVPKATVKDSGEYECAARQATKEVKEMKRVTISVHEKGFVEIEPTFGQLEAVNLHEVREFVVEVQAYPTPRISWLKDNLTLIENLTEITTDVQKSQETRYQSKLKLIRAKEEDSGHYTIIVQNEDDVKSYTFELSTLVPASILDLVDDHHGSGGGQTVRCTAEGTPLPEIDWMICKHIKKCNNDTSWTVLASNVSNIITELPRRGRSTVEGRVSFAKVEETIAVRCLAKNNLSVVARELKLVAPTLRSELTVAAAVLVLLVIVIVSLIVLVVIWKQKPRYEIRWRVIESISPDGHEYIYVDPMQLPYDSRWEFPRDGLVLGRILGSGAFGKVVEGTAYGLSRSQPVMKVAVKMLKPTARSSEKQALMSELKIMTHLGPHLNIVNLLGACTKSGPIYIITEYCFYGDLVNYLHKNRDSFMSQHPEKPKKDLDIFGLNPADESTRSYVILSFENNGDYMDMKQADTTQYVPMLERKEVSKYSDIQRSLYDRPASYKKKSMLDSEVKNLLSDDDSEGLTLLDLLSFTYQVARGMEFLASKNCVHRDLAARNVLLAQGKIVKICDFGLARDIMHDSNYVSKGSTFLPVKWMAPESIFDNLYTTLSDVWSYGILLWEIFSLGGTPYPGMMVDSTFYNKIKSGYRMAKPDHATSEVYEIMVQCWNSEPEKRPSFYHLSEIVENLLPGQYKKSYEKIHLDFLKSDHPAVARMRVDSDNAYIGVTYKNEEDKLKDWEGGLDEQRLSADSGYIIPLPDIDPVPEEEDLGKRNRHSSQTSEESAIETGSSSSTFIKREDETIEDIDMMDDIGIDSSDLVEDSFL
Kind of assay: PDGFR-α activation in infarct border region (immunoprecipitation, pTyr Western blot). Format: in vivo. The following applies: compared to control, after coronary ligation.

Chain of PDGF alpha receptors (P16234 24-1089): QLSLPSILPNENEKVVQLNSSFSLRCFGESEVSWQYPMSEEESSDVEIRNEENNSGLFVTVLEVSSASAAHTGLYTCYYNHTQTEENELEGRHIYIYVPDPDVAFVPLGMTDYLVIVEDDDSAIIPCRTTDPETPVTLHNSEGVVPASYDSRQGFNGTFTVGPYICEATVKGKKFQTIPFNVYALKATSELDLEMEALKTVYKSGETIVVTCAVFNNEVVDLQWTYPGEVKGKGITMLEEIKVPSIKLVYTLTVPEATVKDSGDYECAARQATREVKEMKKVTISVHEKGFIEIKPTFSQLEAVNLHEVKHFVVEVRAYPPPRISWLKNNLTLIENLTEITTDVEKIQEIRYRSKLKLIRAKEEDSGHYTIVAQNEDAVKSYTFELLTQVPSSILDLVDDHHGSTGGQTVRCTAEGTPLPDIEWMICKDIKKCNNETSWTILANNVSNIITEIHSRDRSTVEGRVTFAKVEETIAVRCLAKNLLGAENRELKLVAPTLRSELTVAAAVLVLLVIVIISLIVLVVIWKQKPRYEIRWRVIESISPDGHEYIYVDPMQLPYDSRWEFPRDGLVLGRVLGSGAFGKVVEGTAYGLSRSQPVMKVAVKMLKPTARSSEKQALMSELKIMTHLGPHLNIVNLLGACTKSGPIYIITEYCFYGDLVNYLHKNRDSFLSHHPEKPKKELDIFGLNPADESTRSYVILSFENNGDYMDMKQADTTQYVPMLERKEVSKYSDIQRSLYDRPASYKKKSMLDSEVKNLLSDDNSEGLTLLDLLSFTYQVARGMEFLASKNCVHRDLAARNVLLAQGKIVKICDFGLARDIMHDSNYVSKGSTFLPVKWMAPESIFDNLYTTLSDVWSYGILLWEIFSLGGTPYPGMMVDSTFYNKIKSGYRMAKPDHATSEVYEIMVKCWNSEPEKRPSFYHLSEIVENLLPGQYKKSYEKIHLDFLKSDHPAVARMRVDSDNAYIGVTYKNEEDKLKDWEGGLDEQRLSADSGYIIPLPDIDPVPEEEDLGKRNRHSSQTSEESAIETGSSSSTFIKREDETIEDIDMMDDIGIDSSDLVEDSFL

B1: PDGF-CC: recombinant human PDGF-CC core domain homodimer, residues 230-345 of full-length PDGF-C (SEQ ID NO:40), produced in baculovirus infected insect cells (protein)
chain: GRKSRVVDLNLLTEEVRLYSCTPRNFSVSIREELKRTDTIFWPGCLLVKRCGGNCACCLHNCNECQCVPSKVTKKYHEVLQLRPKTGVRGLHKSLTDVALEHHEECDCVCRGSTGG
modifications: homodimer; PDGF-C core domain
On to B1, for which, in assay [1] (four weeks), the SMA positive cells is given as above 95%; the “expression of CD144 and CD31” value is listed as “lost their expression”. In assay [1] (two weeks of stimulation), the “adherence of AC133+CD34+ cells” value is “enhanced”; the “expression of EC surface markers CD144 (VE-cadherin) and CD31 (PECAM)” value is given as “induced”; the “expression of smooth muscle cell marker SMA” value was “induced”. Besides, in the assay with HMVEC, the EC proliferation entry was “no effect”. For the same molecule, the “proliferation of cultured hSMC cells” value in the assay on hSMC is on record as “stimulated”. The “binding to cells expressing PDGF alpha receptors” value with PDGF alpha receptors was “binds”. Further, the “amount of active PDGFR-α in the border region” value with PDGFR-α is “increased”.
